Common to all, as to assay: purified protein
Common to all, as to assay type: biochemical, Saccharomyces cerevisiae

Substrate in data set [1]: Cc1cc2c(cc1C)N(C[C@H](O)[C@H](O)[C@H](O)CO)c1[nH]c(=O)[nH]c(=O)c1N2
The settings on record: printed as riboflavin, reduced in situ by excess sodium dithionite; fumarate as acceptor, anaerobic, PBS, 1 mM EDTA.

Substrate in data set [2]: Cc1cc2c(cc1C)N(C[C@H](O)[C@H](O)[C@H](O)COP(=O)(O)OP(=O)(O)OC[C@H]1O[C@@H](n3cnc4c(N)ncnc43)[C@H](O)[C@@H]1O)c1[nH]c(=O)[nH]c(=O)c1N2
Conditions: printed as FAD, reduced in situ by excess sodium dithionite; fumarate as acceptor, anaerobic, PBS, 1 mM EDTA.

Substrate in data set [3]: Cc1cc2c(cc1C)N(C[C@H](O)[C@H](O)[C@H](O)COP(=O)(O)O)c1[nH]c(=O)[nH]c(=O)c1N2
Conditions: printed as FMN, reduced in situ by excess sodium dithionite; fumarate as acceptor, anaerobic, PBS, 1 mM EDTA.

B1: Osm1 (Saccharomyces cerevisiae S288C) (protein)
chain: SMKQPVVVIGSGLAGLTTSNRLISKYRIPVVLLDKAASIGGNSIKASSGINGAHTDTQQNLKVMDTPELFLKDTLHSAKGRGVPSLMDKLTKESKSAIRWLQTEFDLKLDLLAQLGGHSVPRTHRSSGKLPPGFEIVQALSKKLKDISSKDSNLVQIMLNSEVVDIELDNQGHVTGVVYMDENGNRKIMKSHHVVFCSGGFGYSKEMLKEYSPNLIHLPTTNGKQTTGDGQKILSKLGAELIDMDQVQVHPTGFIDPNDRENNWKFLAAEALRGLGGILLHPTTGRRFTNELSTRDTVTMEIQSKCPKNDNRALLVMSDKVYENYTNNINFYMSKNLIKKVSINDLIRQYDLQTTASELVTELKSYSDVNTKDTFDRPLIINAFDKDISTESTVYVGEVTPVVHFTMGGVKINEKSQVIKKNSESVLSNGIFAAGEVSGGVHGANRLGGSSLLECVVFGKTAADNIAKLY
notes: residues 32-501, N-terminal His6 tag and thrombin site in pET28a, E. coli BL21(DE3); tag removed by trypsin for crystals
Regarding B1, the figures for the Km in data set [1], in data set [2] and in data set [3] were 9.3745 (±4.991) µM, 2.858 µM and 5.847 (±2.0065) µM, respectively.

Values taken from article PMC6242907, “Molecular basis of maintaining an oxidizing environment under anaerobiosis by soluble fumarate reductase” (Nature Communications, 2018).
